# Assay results taken from publication doi:10.1101/2021.12.08.471876.
# Target: purified recombinant GRP78 protein (GRP78-His) (human) (UniProt P11021)
# Experiment: ITC
# Chain of purified recombinant GRP78 protein (GRP78-His) (human) (P11021 19-654): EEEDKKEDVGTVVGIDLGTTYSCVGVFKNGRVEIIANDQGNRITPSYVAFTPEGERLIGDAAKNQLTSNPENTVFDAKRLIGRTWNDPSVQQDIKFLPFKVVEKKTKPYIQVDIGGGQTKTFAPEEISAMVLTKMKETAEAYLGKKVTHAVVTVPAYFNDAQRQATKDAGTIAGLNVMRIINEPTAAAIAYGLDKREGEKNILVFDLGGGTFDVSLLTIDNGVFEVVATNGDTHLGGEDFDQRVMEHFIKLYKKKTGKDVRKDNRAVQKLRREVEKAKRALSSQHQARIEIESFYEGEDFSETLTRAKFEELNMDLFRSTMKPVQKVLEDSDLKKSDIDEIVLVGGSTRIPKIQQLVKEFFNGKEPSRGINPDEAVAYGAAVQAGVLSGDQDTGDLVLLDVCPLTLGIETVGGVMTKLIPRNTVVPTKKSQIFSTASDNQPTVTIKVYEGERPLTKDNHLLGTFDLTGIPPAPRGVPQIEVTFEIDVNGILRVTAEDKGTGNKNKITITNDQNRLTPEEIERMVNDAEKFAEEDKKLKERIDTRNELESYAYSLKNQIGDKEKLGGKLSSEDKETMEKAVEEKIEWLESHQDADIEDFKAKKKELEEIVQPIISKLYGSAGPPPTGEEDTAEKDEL
# Chain of HBV particles (P03146 whole entry, looked up): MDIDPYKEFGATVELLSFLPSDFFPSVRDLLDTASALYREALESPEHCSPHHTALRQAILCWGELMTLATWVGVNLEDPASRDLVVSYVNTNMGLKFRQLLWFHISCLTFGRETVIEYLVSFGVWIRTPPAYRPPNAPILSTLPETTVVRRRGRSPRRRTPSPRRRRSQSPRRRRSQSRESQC
# Chain of HBV particles (P03138 whole entry, looked up): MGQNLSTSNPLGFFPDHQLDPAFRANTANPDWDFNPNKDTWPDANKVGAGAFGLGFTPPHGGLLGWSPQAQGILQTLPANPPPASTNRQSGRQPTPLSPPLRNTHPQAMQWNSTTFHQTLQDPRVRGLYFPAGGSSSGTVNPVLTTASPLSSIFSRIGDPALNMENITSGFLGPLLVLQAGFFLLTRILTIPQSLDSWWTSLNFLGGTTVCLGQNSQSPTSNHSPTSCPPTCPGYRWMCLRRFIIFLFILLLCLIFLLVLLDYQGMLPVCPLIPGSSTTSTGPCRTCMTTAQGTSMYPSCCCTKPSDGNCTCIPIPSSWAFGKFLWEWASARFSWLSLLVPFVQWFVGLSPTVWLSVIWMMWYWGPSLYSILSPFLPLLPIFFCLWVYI
substance,measurement,value
HBV particles (from UniProt P03138;P03146) (complex),Kd,75.6 µM
